# According to the supplement of paper PMC12764529:
# ± gives the half width of the 95% confidence interval.
# How the values were obtained:
# [1] = folding stability dG unfold from trypsin proteolysis; higher = more stable
# Outline: (§1)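 Mini-proteins designed to be under 80 residues and free of cysteine were carried in a PA-tagged cDNA display construct and digested with trypsin and with chymotrypsin. Each protease was applied at 11 threefold-diluted concentrations, alongside a no-protease condition, before sequencing. K50 came from Bayesian fitting of the sequencing counts, and unfolding free energy was obtained by comparing it with a sequence-predicted unfolded-state K50 and a shared folded-state K50, for each protease separately or for both together. Designs were retained only if their AlphaFold2 dimer inter-PAE exceeded 15.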
# [2] = folding stability dG unfold (combined trypsin and chymotrypsin); higher = more stable
# Outline: as §1
# [3] = folding stability dG unfold from chymotrypsin proteolysis; higher = more stable
# Outline: as §1
Sequence,folding stability dG unfold [1],folding stability dG unfold [2],folding stability dG unfold [3]
SAGGSAGGSAGGMIIEKKTVEKLPDGTVKVTVSIITVNDDGKTETIKTETKIIPLSELLGSAGGSAGGSAGG [r7_521_JUSTAS],2.31 ± 0.11 kcal/mol,2.18 ± 0.11 kcal/mol,2.25 ± 0.1 kcal/mol
SAGGSAGGSAGGMILRDPNRDIWTADFPDSSGNLVSSREFPPGEIEEVLAEGNVSAEVLPSAGGSAGGSAGG [r11_159_JUSTAS],0.362 ± 0.015 kcal/mol,0.315 ± 0.043 kcal/mol,0.297 ± 0.059 kcal/mol
SAGGSAGGSAGGMIVLKDPDPARLEARAEELRAELEAAGRELPPDVEIEVLEAEPDPALLSAGGSAGGSAGG [r7_965_JUSTAS],-0.194 ± 0.21 kcal/mol,-0.279 ± 0.29 kcal/mol,-0.568 ± 0.37 kcal/mol
SAGGSAGGSAGGMKIKITVEVFDPNTGKVLKTEEFTSLEEAEKKVKEEDPNKVKVTVKEESAGGSAGGSAGG [r7_201_JUSTAS],0.805 ± 0.056 kcal/mol,1.33 ± 0.077 kcal/mol,1.71 ± 0.032 kcal/mol
SAGGSAGGSAGGMKILSVEEDAPPDYVTVTELTVDSEGNKKIITTTIPIEPPPEVSPSLISAGGSAGGSAGG [r7_873_JUSTAS],1.15 ± 0.039 kcal/mol,1.24 ± 0.17 kcal/mol,1.45 ± 0.1 kcal/mol
SAGGSAGGSAGGMKIVFLGKKALIENENGEVTEIPVGSLEEFEKLAEAFPDYEAVPAVPSAGGSAGGSAGGS [r10_1211_TrMRF],0.888 ± 0.025 kcal/mol,1.31 ± 0.051 kcal/mol,1.5 ± 0.029 kcal/mol
SAGGSAGGSAGGMKKKIPNKTLTIEIEVKLENGLYLKMKITVNKNGEIKIEIEVIPKEDLSAGGSAGGSAGG [r7_214_TrROS_Hall],2.57 ± 0.12 kcal/mol,3.08 ± 0.14 kcal/mol,3.33 ± 0.073 kcal/mol
SAGGSAGGSAGGMKKYKITVYDEKTGEKHTIEIEMSEEELEELAKKLAEKHNVKVRIEKVSAGGSAGGSAGG [r7_562_TrROS_Hall],2.73 ± 0.095 kcal/mol,3.91 ± 0.062 kcal/mol,4.27 ± 0.052 kcal/mol
SAGGSAGGSAGGMKTIEITNADGSKATAELLPDGWVKIYFEETGEEKTLPAKDLTITPPSAGGSAGGSAGGS [r10_289_TrROS_Hall],0.423 ± 0.038 kcal/mol,0.466 ± 0.05 kcal/mol,0.5 ± 0.013 kcal/mol
SAGGSAGGSAGGMKTIVLPNVTPEEAEALAAELEKKYPGRTVNVTYVPENPTTVVITVGSAGGSAGGSAGGS [r10_852_JUSTAS],2.21 ± 0.085 kcal/mol,2.41 ± 0.087 kcal/mol,2.54 ± 0.12 kcal/mol
SAGGSAGGSAGGMKTIVVPKDELEKLKEELEKKGKKVETSEDGTWTVDGKPVKVVVEPGSAGGSAGGSAGGS [r10_930_JUSTAS],0.352 ± 0.062 kcal/mol,0.594 ± 0.1 kcal/mol,0.731 ± 0.032 kcal/mol
SAGGSAGGSAGGMKVERVEVVELPNGQRVLTRTLEVVPPDGSSRVLETEVRFYPPDEALLSAGGSAGGSAGG [r7_917_JUSTAS],-0.666 ± 0.38 kcal/mol,0.0413 ± 0.065 kcal/mol,0.291 ± 0.06 kcal/mol
SAGGSAGGSAGGMKYTIKVTTTYPDGTVTEYTFPSSVSKEEIIKELPSDVVDITFTETASSAGGSAGGSAGG [r7_288_JUSTAS],2.17 ± 0.066 kcal/mol,2.26 ± 0.04 kcal/mol,2.17 ± 0.026 kcal/mol
SAGGSAGGSAGGMLALIYGKEKPILLSAEEILNNPELLKELEKKGYPIVKIEFFKEEELSAGGSAGGSAGGS [r10_396_TrMRF],1.07 ± 0.049 kcal/mol,0.817 ± 0.097 kcal/mol,0.478 ± 0.15 kcal/mol
SAGGSAGGSAGGMLKIKVYRFDKNGKLVEEEEIELPENVKEIVIKDEKTGKYYKVEIVDSAGGSAGGSAGGS [r10_970_TrROS_Hall],1.25 ± 0.053 kcal/mol,1.76 ± 0.15 kcal/mol,2.02 ± 0.11 kcal/mol
SAGGSAGGSAGGMLKITITTPGEEREFVIPTPEPEPPGEEEVAKELGLEDVEVEVEEVLESAGGSAGGSAGG [r11_219_JUSTAS],0.118 ± 0.04 kcal/mol,0.0103 ± 0.12 kcal/mol,-0.0518 ± 0.1 kcal/mol
SAGGSAGGSAGGMLKTKVTVDPTPDGVTRVTETTYDPSTGALVKTSTTIVVPGTGEVTAVSAGGSAGGSAGG [r7_804_JUSTAS],-0.779 ± 0.18 kcal/mol,0.669 ± 0.062 kcal/mol,1.04 ± 0.031 kcal/mol
SAGGSAGGSAGGMMKTTITITLPPNSSKEEAEKIKEEGLPAEEIVVEKNPDGTRVVTILESAGGSAGGSAGG [r11_97_JUSTAS],-0.915 ± 0.31 kcal/mol,0.237 ± 0.15 kcal/mol,0.657 ± 0.051 kcal/mol

Sequence,folding stability dG unfold [1],folding stability dG unfold [2],folding stability dG unfold [3]
SAGGSAGGSAGGMPDGAEFELEFEFELPDGYRVRLRIRARIGPDGVVEFEVEVEVYEVPDSAGGSAGGSAGG [r7_125_TrMRF],4.58 ± 0.15 kcal/mol,5.01 ± 0.13 kcal/mol,5.13 ± 0.12 kcal/mol
SAGGSAGGSAGGMPIKVEEYELPNGEKILKEISPEGVVKVYKVDPVNGKKEVIEVIPINKSAGGSAGGSAGG [r7_898_JUSTAS],0.446 ± 0.094 kcal/mol,1.01 ± 0.19 kcal/mol,1.1 ± 0.073 kcal/mol
SAGGSAGGSAGGMPILEIDVAGDSPDIAIETAKAIVDELPTYNPENVKVIIKDGKVIIGSAGGSAGGSAGGS [r10_182_TrMRF],0.498 ± 0.018 kcal/mol,1.25 ± 0.15 kcal/mol,1.66 ± 0.12 kcal/mol
SAGGSAGGSAGGMPVIEIPIRPDPNGKPRSAEEIASKIKDRFGYPVKIVSVENNHITITVSAGGSAGGSAGG [r17_426_TrROS],0.166 ± 0.076 kcal/mol,0.707 ± 0.18 kcal/mol,0.983 ± 0.066 kcal/mol
SAGGSAGGSAGGMPVTFTGENQPVEVLSVDPERPVVVVYYPPTGTLLVALPPTGKVFPVSAGGSAGGSAGGS [r10_440_TrMRF],-0.867 ± 0.54 kcal/mol,0.18 ± 0.14 kcal/mol,0.492 ± 0.15 kcal/mol
SAGGSAGGSAGGMRVYEFDSEEEAQAFAEELRAAEPDVREVTIERDPETGKYRVTVVAESAGGSAGGSAGGS [r10_544_JUSTAS],4.24 ± 0.17 kcal/mol,4.62 ± 0.14 kcal/mol,4.69 ± 0.091 kcal/mol
SAGGSAGGSAGGMTIPLEFEFPDGRRLRITYHIEPSEDGLKITAEVEIEPIPEPPLPSDSAGGSAGGSAGGS [r10_1200_TrMRF],1.93 ± 0.14 kcal/mol,3.31 ± 0.26 kcal/mol,3.64 ± 0.13 kcal/mol
SAGGSAGGSAGGMTLTIPEEVLKKALEEGDEELLKEVVEKAGVKPEDTEVIAVTPEDLLESAGGSAGGSAGG [r7_7_JUSTAS],0.56 ± 0.072 kcal/mol,0.822 ± 0.12 kcal/mol,0.919 ± 0.07 kcal/mol
SAGGSAGGSAGGMTVERDPEKPVVTVTITDPSGASIVVEIPYETEEEAEAAVKKVIEELASAGGSAGGSAGG [r7_756_JUSTAS],2.11 ± 0.091 kcal/mol,1.83 ± 0.13 kcal/mol,1.53 ± 0.07 kcal/mol
SAGGSAGGSAGGMTVRITTPDGRVIEIPAKDLSPEQLAALKEAGFEVVSVEPGRVTIRLKSAGGSAGGSAGG [r7_496_TrROS_Hall],0.865 ± 0.1 kcal/mol,1.49 ± 0.13 kcal/mol,1.92 ± 0.036 kcal/mol
SAGGSAGGSAGGMTVTLKAPDGKWLTVPVDPEDPKAVKEAVEELAAKGHPVVEVSTDEKSAGGSAGGSAGGS [r10_231_JUSTAS],0.555 ± 0.025 kcal/mol,0.355 ± 0.059 kcal/mol,0.0542 ± 0.097 kcal/mol
SAGGSAGGSAGGMTVTTEKAAPSPRQVTVTTVYDPSTGTSVTIVTLPDGSLKVIPSGTLSAGGSAGGSAGGS [r10_996_JUSTAS],0.193 ± 0.14 kcal/mol,-0.247 ± 0.23 kcal/mol,-0.404 ± 0.22 kcal/mol
SAGGSAGGSAGGMVIVTFPDGSVREVEVLETEPDGTVVVAPPDRPVETLSGAGLTLTPVPSAGGSAGGSAGG [r7_823_JUSTAS],1.19 ± 0.071 kcal/mol,0.59 ± 0.07 kcal/mol,-0.524 ± 0.13 kcal/mol
SAGGSAGGSAGGMVKITFEKDPNSDKGRVTLTDPNATVTLEYDSEEEAEKAIKERFPELESAGGSAGGSAGG [r7_841_JUSTAS],-0.364 ± 0.14 kcal/mol,0.435 ± 0.088 kcal/mol,0.879 ± 0.02 kcal/mol
SAGGSAGGSAGGMVLVETEPLPDGGYRVLVVFPGTDEVRELYFSSSTTPEQVLDVVLAESAGGSAGGSAGGS [r10_825_TrMRF],2.44 ± 0.059 kcal/mol,2.34 ± 0.083 kcal/mol,2.233 ± 0.021 kcal/mol
SAGGSAGGSAGGMVVLENGDEVIVETFEFEEPVLDDVSEELREELGVVKVTVTKVTVIRRSAGGSAGGSAGG [r7_324_JUSTAS],1.08 ± 0.069 kcal/mol,1.11 ± 0.13 kcal/mol,1.15 ± 0.059 kcal/mol
SAGGSAGGSAGGMYKVTITVGGKEITIEVSEEELEELLKALEDEGYEIKEIRVEKLPEESAGGSAGGSAGGS [r10_405_TrROS_Hall],3.91 ± 0.23 kcal/mol,3.63 ± 0.11 kcal/mol,3.57 ± 0.097 kcal/mol
SAGGSAGGSAGGMYVLIKITNPKTKKEISILIKVKPGDKITFTLPNGAKVEIIELPPEESAGGSAGGSAGGS [r10_957_TrROS_Hall],3.3 ± 0.13 kcal/mol,3.92 ± 0.22 kcal/mol,4.28 ± 0.068 kcal/mol
